One substance from publication doi:10.64898/2025.12.08.693079 can be followed below.

pIC50, pKd: −log10 of the molar value.

In assay [1] the target is purified 20S core peptidase (CP) (S. cerevisiae) (UniProt P21242). The assay can be described thus: NADH-coupled ATPase displacement assay.
Assay [2] shares this target. As to the kind of experiment: Suc-LLVY-AMC peptidase activity titration.

Chain of UniProt P21242 (P21242 whole entry, looked up): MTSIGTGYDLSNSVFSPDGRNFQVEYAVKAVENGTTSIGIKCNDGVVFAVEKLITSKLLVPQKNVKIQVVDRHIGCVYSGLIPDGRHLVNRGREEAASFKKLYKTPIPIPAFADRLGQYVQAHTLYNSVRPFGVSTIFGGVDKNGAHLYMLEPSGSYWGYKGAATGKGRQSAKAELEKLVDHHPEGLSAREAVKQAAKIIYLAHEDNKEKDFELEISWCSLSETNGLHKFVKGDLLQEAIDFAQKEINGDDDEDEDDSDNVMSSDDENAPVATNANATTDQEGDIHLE

On to “3x-Flag-tagged Blm10 (from UniProt P43583 1-2143) (natural protein)”, for which the pIC50 in assay [1] was 5.52. In assay [2], this substance gave a pKd of 7.19.

For orientation: pIC50 means −log10 of the IC50, conventionally taken in molar units. In general, pKd refers to the negative decadic logarithm of the Kd, by convention in mol/L. Read a high pKd as a small Kd.
